Test results taken from the Human Domainome abundance scans (Beltran et al. 2025).
± gives the uncertainty stated by the source.

B1: Receptor-interacting serine/threonine-protein kinase 2, residues 438 to 518; numbered along this chain, O43353 (parent)
chain: QWIQSKREDIVNQMTEACLNQSLDALLSRDLIMKEDYELVSTKPTRTSKVRQLLDTTDIQGEEFAKVIVQKLKDNKQMGLQ

Variants of: B1
Test: abundance fitness (aPCA) (normalised: wild type 0, dead -1); higher = more abundant; growth selection in yeast, the domain comes from the species named
Settings: Homo sapiens

Variant	abundance fitness
QWIQSKREDIVNQMTEACLNQSLDALLSRDLIMKEDYELVSTKPTRTSKVRQLLDTTDIQGEEFAKVIHQKLKDNKQMGLQ [V69H]	-0.508 ± 0.25
QWIQSKREDIVNQMTEACLNQSLDALLSRDLIMKEDYELVSTKPTRTSKVRQLLDTTDIQGEEFAKVIFQKLKDNKQMGLQ [V69F]	-0.057 ± 0.13
QWIQSKREDIVNQMTEACLNQSLDALLSRDLIMKEDYELVSTKPTRTSKVRQLLDTTDIQGEEFAKVIEQKLKDNKQMGLQ [V69E]	-0.178 ± 0.12
QWIQSKREDIVNQMTEACLNQSLDALLSRDLIMKEDYELVSTKPTRTSKVRQLLDTTDIQGEEFAKVIGQKLKDNKQMGLQ [V69G]	-0.553 ± 0.086
QWIQSKREDIVNQMTEACLNQSLDALLSRDLIMKEDYELVSTKPTRTSKVRQLLDTTDIQGEEFAKVIIQKLKDNKQMGLQ [V69I]	-0.051 ± 0.16
QWIQSKREDIVNQMTEACLNQSLDALLSRDLIMKEDYELVSTKPTRTSKVRQLLDTTDIQGEEFAKVIKQKLKDNKQMGLQ [V69K]	-0.35 ± 0.13
QWIQSKREDIVNQMTEACLNQSLDALLSRDLIMKEDYELVSTKPTRTSKVRQLLDTTDIQGEEFAKVIMQKLKDNKQMGLQ [V69M]	0.003 ± 0.11
QWIQSKREDIVNQMTEACLNQSLDALLSRDLIMKEDYELVSTKPTRTSKVRQLLDTTDIQGEEFAKVIAQKLKDNKQMGLQ [V69A]	-0.384 ± 0.097
QWIQSKREDIVNQMTEACLNQSLDALLSRDLIMKEDYELVSTKPTRTSKVRQLLDTTDIQGEEFAKVILQKLKDNKQMGLQ [V69L]	-0.286 ± 0.093
QWIQSKREDIVNQMTEACLNQSLDALLSRDLIMKEDYELVSTKPTRTSKVRQLLDTTDIQGEEFAKVIDQKLKDNKQMGLQ [V69D]	-0.27 ± 0.2
QWIQSKREDIVNQMTEACLNQSLDALLSRDLIMKEDYELVSTKPTRTSKVRQLLDTTDIQGEEFAKVICQKLKDNKQMGLQ [V69C]	-0.159 ± 0.11
QWIQSKREDIVNQMTEACLNQSLDALLSRDLIMKEDYELVSTKPTRTSKVRQLLDTTDIQGEEFAKWIVQKLKDNKQMGLQ [V67W]	-0.95 ± 0.15
QWIQSKREDIVNQMTEACLNQSLDALLSRDLIMKEDYELVSTKPTRTSKVRQLLDTTDIQGEEFAKRIVQKLKDNKQMGLQ [V67R]	-0.854 ± 0.087
QWIQSKREDIVNQMTEACLNQSLDALLSRDLIMKEDYELVSTKPTRTSKVRQLLDTTDIQGEEFAKQIVQKLKDNKQMGLQ [V67Q]	-0.568 ± 0.12
QWIQSKREDIVNQMTEACLNQSLDALLSRDLIMKEDYELVSTKPTRTSKVRQLLDTTDIQGEEFAKPIVQKLKDNKQMGLQ [V67P]	-0.562 ± 0.08
QWIQSKREDIVNQMTEACLNQSLDALLSRDLIMKEDYELVSTKPTRTSKVRQLLDTTDIQGEEFAKTIVQKLKDNKQMGLQ [V67T]	-0.305 ± 0.086
QWIQSKREDIVNQMTEACLNQSLDALLSRDLIMKEDYELVSTKPTRTSKVRQLLDTTDIQGEEFAKVEVQKLKDNKQMGLQ [I68E]	-0.152 ± 0.18

Variant	abundance fitness
QWIQSKREDIVNQMTEACLNQSLDALLSRDLIMKEDYELVSTKPTRTSKVRQLLDTTDIQGEEFAKVMVQKLKDNKQMGLQ [I68M]	-0.201 ± 0.14
QWIQSKREDIVNQMTEACLNQSLDALLSRDLIMKEDYELVSTKPTRTSKVRQLLDTTDIQGEEFAKVTVQKLKDNKQMGLQ [I68T]	-0.345 ± 0.095
QWIQSKREDIVNQMTEACLNQSLDALLSRDLIMKEDYELVSTKPTRTSKVRQLLDTTDIQGEEFAKVPVQKLKDNKQMGLQ [I68P]	-0.462 ± 0.07
QWIQSKREDIVNQMTEACLNQSLDALLSRDLIMKEDYELVSTKPTRTSKVRQLLDTTDIQGEEFAKVCVQKLKDNKQMGLQ [I68C]	-0.866 ± 0.19
QWIQSKREDIVNQMTEACLNQSLDALLSRDLIMKEDYELVSTKPTRTSKVRQLLDTTDIQGEEFAKVRVQKLKDNKQMGLQ [I68R]	-0.695 ± 0.07
QWIQSKREDIVNQMTEACLNQSLDALLSRDLIMKEDYELVSTKPTRTSKVRQLLDTTDIQGEEFAKVVVQKLKDNKQMGLQ [I68V]	-0.147 ± 0.091
QWIQSKREDIVNQMTEACLNQSLDALLSRDLIMKEDYELVSTKPTRTSKVRQLLDTTDIQGEEFAKVWVQKLKDNKQMGLQ [I68W]	-0.958 ± 0.16
QWIQSKREDIVNQMTEACLNQSLDALLSRDLIMKEDYELVSTKPTRTSKVRQLLDTTDIQGEEFAKVHVQKLKDNKQMGLQ [I68H]	-0.508 ± 0.082
QWIQSKREDIVNQMTEACLNQSLDALLSRDLIMKEDYELVSTKPTRTSKVRQLLDTTDIQGEEFAKVLVQKLKDNKQMGLQ [I68L]	-0.413 ± 0.077
QWIQSKREDIVNQMTEACLNQSLDALLSRDLIMKEDYELVSTKPTRTSKVRQLLDTTDIQGEEFAKVYVQKLKDNKQMGLQ [I68Y]	-0.568 ± 0.24
QWIQSKREDIVNQMTEACLNQSLDALLSRDLIMKEDYELVSTKPTRTSKVRQLLDTTDIQGEEFAKVAVQKLKDNKQMGLQ [I68A]	-0.367 ± 0.081
QWIQSKREDIVNQMTEACLNQSLDALLSRDLIMKEDYELVSTKPTRTSKVRQLLDTTDIQGEEFAKVGVQKLKDNKQMGLQ [I68G]	-0.497 ± 0.086
QWIQSKREDIVNQMTEACLNQSLDALLSRDLIMKEDYELVSTKPTRTSKVRQLLDTTDIQGEEFAKVNVQKLKDNKQMGLQ [I68N]	-0.459 ± 0.26
QWIQSKREDIVNQMTEACLNQSLDALLSRDLIMKEDYELVSTKPTRTSKVRQLLDTTDIQGEEFAKVSVQKLKDNKQMGLQ [I68S]	-0.491 ± 0.073
QWIQSKREDIVNQMTEACLNQSLDALLSRDLIMKEDYELVSTKPTRTSKVRQLLDTTDIQGEEFAKVQVQKLKDNKQMGLQ [I68Q]	-0.554 ± 0.12
QWIQSKREDIVNQMTEACLNQSLDALLSRDLIMKEDYELVSTKPTRTSKVRQLLDTTDIQGEEFAKVKVQKLKDNKQMGLQ [I68K]	-0.909 ± 0.22
QWIQSKREDIVNQMTEACLNQSLDALLSRDLIMKEDYELVSTKPTRTSKVRQLLDTTDIQGEEFAKVFVQKLKDNKQMGLQ [I68F]	-0.924 ± 0.21
